Test [1] has as its target T1, CD137-hisFc fusion protein (Sino Biological Cat 10041-H03H) (human, UniProt Q07011 24-186).
T1 construct: Bought; also called recombinant human CD137 (fused with human Fc and His tag); not shown: His tag and human Fc
The test can be described thus: BLI Octet, Fab. In general terms: Biolayer interferometry detects binding as a change in optical thickness at a sensor tip.

The target in test [2] is T1, CD137-hisFc fusion protein (Sino …). The test can be described thus: BLI Octet, Fab. The source holds these as a separate data set.
The target of test [3] is T2, mouse CD137 fused with human FC fragment (mouse, UniProt P20334 24-178, limits assumed).
T2 construct: also called mouse CD137-Fc; not shown: human Fc fragment
T2 sequence: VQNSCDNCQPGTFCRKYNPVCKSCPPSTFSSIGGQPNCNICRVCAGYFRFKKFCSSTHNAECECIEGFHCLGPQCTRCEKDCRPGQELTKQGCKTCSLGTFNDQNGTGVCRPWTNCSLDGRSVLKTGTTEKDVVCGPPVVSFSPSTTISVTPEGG
The test can be described thus: ELISA, Fab captured by anti-human IgG (Fab specific), CD137-Fc added, anti-human Fc-HRP. A general note: In an ELISA, binding on a coated surface is turned into a signal by an enzyme label.

In test [4] the target is T3, mouse CD137 protein (Biacore) (mouse, UniProt P20334 24-178, limits assumed).
T3 construct: Construct used as SPR analyte not described
T3 sequence: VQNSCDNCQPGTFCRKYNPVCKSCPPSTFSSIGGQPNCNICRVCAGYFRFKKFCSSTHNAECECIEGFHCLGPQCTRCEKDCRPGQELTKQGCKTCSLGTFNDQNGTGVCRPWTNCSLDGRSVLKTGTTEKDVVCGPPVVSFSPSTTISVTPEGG
The test can be described thus: SPR Biacore. For orientation: Surface plasmon resonance follows binding to a sensor surface in real time, without labels.

Test [5] deals with T4, full-length mouse CD137 on the cell surface (mouse, UniProt P20334 24-178).
T4 sequence: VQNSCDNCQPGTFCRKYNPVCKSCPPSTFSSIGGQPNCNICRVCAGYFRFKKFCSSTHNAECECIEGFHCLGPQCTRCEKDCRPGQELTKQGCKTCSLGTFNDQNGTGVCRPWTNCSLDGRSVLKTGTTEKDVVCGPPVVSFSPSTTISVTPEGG
The test can be described thus: flow cytometry, HEK293F cells expressing CD137 or mutant.

The target in test [6] is T5, full-length human CD137 on the cell surface (human, UniProt Q07011 18-255).
T5 construct: also called Human WT
The test is described as above.

The target in test [7] is T4, full-length mouse CD137 on the cell …. The test can be described thus: flow cytometry, yeast display [Cont.].
In test [8] the target is T5, full-length human CD137 on the cell …. The test can be described thus: flow cytometry, yeast display [Cont.].
For the next test, the target named is T6, Hu_CRD2 (human, UniProt Q07011 46-86, limits assumed).
T6 construct: also called human CD137 CRD2
T6 chain: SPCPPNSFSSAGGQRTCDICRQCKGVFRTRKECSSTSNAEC
The test can be described thus: flow cytometry, yeast display [Cont.].

Another test has as its target T7, Hu_CRD3-CRD4 (human, UniProt Q07011 87-159, limits assumed).
T7 construct: also called two CRD units (CRD3-CRD4) of human CD137
The test can be described thus: flow cytometry, yeast display [Cont.].

For the next test, the target named is T8, Hu_CRD2-CRD3-CRD4 (human, UniProt Q07011 46-159, limits assumed).
T8 construct: also called three CRD units (CRD2-CRD3-CRD4) of human CD137
The test can be described thus: flow cytometry, yeast display [Cont.].

The target of the next test is T9, Hu_CRD1-CRD2-CRD3 (human, UniProt Q07011 24-118, limits assumed).
T9 construct: also called three CRD units (CRD1-CRD2-CRD3) of human CD137
The test can be described thus: flow cytometry, yeast display [Cont.].

In a further test the target is T10, Hu_TN137AA (human, UniProt Q07011 18-255).
T10 construct: On HEK293F
The test can be described thus: flow cytometry, HEK293F.

The target of a further test is T11, Hu_GQ109AA (human, UniProt Q07011 18-255).
T11 construct: On HEK293F
The test can be described thus: flow cytometry, HEK293F.

A further test has as its target T12, Hu_EL111AA (human, UniProt Q07011 18-255).
T12 construct: On HEK293F
The test can be described thus: flow cytometry, HEK293F.

Test [9] has as its target T13, rat CD137 on the cell surface (rat, UniProt Q4W8J3 24-258).
T13 sequence: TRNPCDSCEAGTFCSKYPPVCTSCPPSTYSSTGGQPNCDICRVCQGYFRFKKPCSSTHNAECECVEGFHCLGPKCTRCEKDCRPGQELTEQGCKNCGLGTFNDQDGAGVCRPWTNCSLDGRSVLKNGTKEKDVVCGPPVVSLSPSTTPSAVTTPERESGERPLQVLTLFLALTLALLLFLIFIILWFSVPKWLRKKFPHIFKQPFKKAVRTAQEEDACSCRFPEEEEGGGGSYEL
The test can be described thus: flow cytometry, HEK293F cells expressing CD137.

The target in another test is T14, Hu_FH92AA (human, UniProt Q07011 18-255).
T14 construct: On HEK293F
The test can be described thus: flow cytometry, HEK293F cells expressing CD137 or mutant [Cont.].

The next test concerns the target T15, Hu_FSS53AAA (human, UniProt Q07011 18-255).
T15 construct: On HEK293F
T15 chain: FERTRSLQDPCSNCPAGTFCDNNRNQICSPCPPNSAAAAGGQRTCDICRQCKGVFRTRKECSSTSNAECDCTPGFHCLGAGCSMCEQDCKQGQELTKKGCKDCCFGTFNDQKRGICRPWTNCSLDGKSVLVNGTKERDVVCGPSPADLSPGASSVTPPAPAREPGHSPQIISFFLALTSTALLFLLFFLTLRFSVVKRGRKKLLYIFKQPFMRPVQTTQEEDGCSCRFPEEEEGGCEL
The test is described as above.

The target of another test is T16, Hu_GTF34AAA (human, UniProt Q07011 18-255).
T16 construct: On HEK293F; also called GFT34AAA
T16 chain: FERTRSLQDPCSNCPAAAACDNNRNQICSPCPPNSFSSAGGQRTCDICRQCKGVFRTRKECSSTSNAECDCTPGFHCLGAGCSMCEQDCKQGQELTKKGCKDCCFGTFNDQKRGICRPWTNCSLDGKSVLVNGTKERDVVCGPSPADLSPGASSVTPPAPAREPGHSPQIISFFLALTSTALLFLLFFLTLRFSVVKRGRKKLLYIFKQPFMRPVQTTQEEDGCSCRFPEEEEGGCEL
The description is as above.

For test [10], the target named is T5, full-length human CD137 on the cell …. The test can be described thus: flow cytometry, HEK293F.
Another test concerns the target T17, Hu_PW135AA (human, UniProt Q07011 18-255).
T17 construct: On HEK293F
The test can be described thus: flow cytometry, HEK293F cells expressing CD137 or mutant [Cont.].

A further test has as its target T18, Hu_FN125AA (human, UniProt Q07011 18-255).
T18 construct: On HEK293F
The description is as above.

For a further test, the target named is T19, Hu_GT150AA (human, UniProt Q07011 18-255).
T19 construct: On HEK293F
The description is as above.

In test [11] the target is T2, mouse CD137 fused with human FC fragment. The test can be described thus: ELISA, coated CD137-Fc.
For test [12], the target named is T5, full-length human CD137 on the cell …. The test can be described thus: cell-based or functional assay.
In the next test the target is T20, Hu_CRD1-CRD2 (human, UniProt Q07011 24-86, limits assumed).
T20 construct: also called two CRD units (CRD1-CRD2) of human CD137
The test can be described thus: flow cytometry, yeast display [Cont.].

In the next test the target is T21, Hu_CRD4 (human, UniProt Q07011 119-159, limits assumed).
T21 construct: also called human CD137 CRD4
T21 chain: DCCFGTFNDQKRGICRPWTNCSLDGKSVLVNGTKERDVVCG
The test can be described thus: flow cytometry, yeast display [Cont.].

The target of the next test is T22, Hu_CRD2-CRD3 (human, UniProt Q07011 46-118, limits assumed).
T22 construct: also called two CRD units (CRD2-CRD3) of human CD137
The test can be described thus: flow cytometry, yeast display [Cont.].

Another test deals with T23, Hu_CRD3 (human, limits assumed).
T23 construct: also called human CD137 CRD3
T23 chain: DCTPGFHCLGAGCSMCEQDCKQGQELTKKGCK
The test can be described thus: flow cytometry, yeast display [Cont.].

The target of test [13] is T24, human CD137-His6 (Sino Biological #10041-H08H) (human, UniProt Q07011 24-186).
T24 construct: Bought; also called human CD137 protein; not shown: His6 tag
The test can be described thus: SPR Biacore, IgG captured.

Where two headings read alike, the source gives them in different places.

Usually Kd stands for a measure of binding affinity in units of concentration. A low value points to higher affinity. As a reminder, the koff is the rate constant with which the complex falls apart. What is called kon is the rate constant with which the complex forms. A low value points to slower complex formation.

B1: Fab 5351 (Fab, V domains shown)
VH: EVQLVESGGGLVQPGGSLRLSCAASGYSITSGHYWAWIRQAPGKGLEWVSSISGYGSTTYYADSVKGRFTISRDNSKNTLYLQLNSLRAEDTAVYYCARGGSDAVLGDWFAYWGQGTLVTVSS
VL: DIQLTQSPSSLSASVGDRVTITCRASQGIGSFLAWYQQKPGKAPKLLIYDASNLETGVPSRFSGSGSGTDFTLTISSLQPEDFATYYCQQGYYLWTFGQGTKVEIKR
notes: Fab from E. coli; also called VH25/VL25
In test [1], B1 gave a Kd of 7.3 nM, a koff of 0.0034 s⁻¹ and a kon of 470000 M⁻¹ s⁻¹. In test [2], the Kd came to 7.29 nM, the koff worked out at 0.0034 s⁻¹ and the kon was 466000 M⁻¹ s⁻¹. Also, the binding result in test [3] is on record as “no binding”.

B2: AC1121 (antibody, V domains shown)
VH: QVQLQQWGAGLLKPSETLSLTCAVYGGSFSGYYWSWIRQSPEKGLEWIGEINHGGYVTYNPSLESRVTISVDTSKNQFSLKLSSVTAADTAVYYCARDYGPGNYDWYFDLWGRGTLVTVSS
VL: EIVLTQSPATLSLSPGERATLSCRASQSVSSYLAWYQQKPGQAPRLLIYDASNRATGIPARFSGSGSGTDFTLTISSLEPEDFAVYYCQQRSNWPPALTFGGGTKVEIK
For the molecule B2, the binding result in [4] is listed as “no binding”; in test [5], “no binding (tested: 100 nM (as in Example 5))”; in the test with Hu_TN137AA, “binds”; in the test with Hu_GQ109AA, “binds”; with Hu_EL111AA, “binds”; in [9] it was “no binding (tested: 100 nM (text paragraph 220))”. Besides, the binding result in the test with Hu_FH92AA was “binds”; in test [11], “no binding”. In addition, the “% in upper right quadrant” value is 27.8% in [6]; 0.4% in [7]; 32.2% in [8]; 0.26% with Hu_CRD2; 0.18% in the test with Hu_CRD3-CRD4; 0.42% with Hu_CRD2-CRD3-CRD4. Besides, the “% in upper right quadrant” value with Hu_CRD1-CRD2-CRD3 stood at 57.2%; with Hu_CRD1-CRD2 it was 51.4%; with Hu_CRD4 it was 0.15%; with Hu_CRD2-CRD3 it was 0.12%; with Hu_CRD3, 0.22%. Besides, the Mean in test [7] was 13100; in [8], 93600; in the test with Hu_CRD2, 4050; with Hu_CRD3-CRD4, 3460; with Hu_CRD2-CRD3-CRD4, 29500; in the test with Hu_CRD1-CRD2-CRD3 it was 46500. Moreover, the Mean with Hu_FSS53AAA came out at 16700; in the test with Hu_GTF34AAA it was 8620; with Hu_PW135AA it was 53900; with Hu_FN125AA, 23100; with Hu_GT150AA, 21300; with Hu_CRD1-CRD2 it was 26000. Further, the figures for the Mean with Hu_CRD4, with Hu_CRD2-CRD3 and with Hu_CRD3 were 6770, 12800 and 13900, respectively. Also, the Kd was 3.3 nM in test [10] and 9.6 nM in [13]. The “NFκB reporter: EC50 (nM) With Cross-Linker” value in test [12] worked out at 2.51 nM. Moreover, in [12], the “NFκB reporter: EC50 (nM) Without Cross-Linker” value was determined as 1.27 nM.

Values taken from patent US20190055314A1 (ADAGENE, published 2019).
